Measured values as given in patent publication US20160102123A1.

Key:
[1] = biological target: B1_N67I, S215P (RSV B1) (UniProt O36634); assay: quantitative Octet, CR9501 on sensor, culture supernatant
[2] = biological target: B1_N67I, S215P loop (RSV B1) (UniProt O36634); assay: as above
[3] = biological target: A2_F24 VI56IV (RSV A2) (UniProt P03420); assay: Octet BLI endpoint, CR9501 on sensor, culture supernatant

## CR9501 (antibody)
[1]
  % concentration measured with CR9501 after 5 days at 4 C relative to day of harvest: 90.9%
[2]
  % concentration measured with CR9501 after 5 days at 4 C relative to day of harvest: 108%
[3]
  % CR9501 binding after 5 days at 4 C relative to day 1: 54%
